# The supplement of paper PMC9170038
# Test system: MS2 coat protein
# Assay: apparent KD of MS2 coat protein; higher = weaker reporter binding
# Conditions: Eterna round: R107; input ligand: theophylline 20 uM
# How it was run: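 Apparent KD is reported per design as the median of normalised binding-curve fits across its clusters. The RNA switches were made by on-chip transcription from Illumina sequencing clusters. SNAP-549-labelled MS2 coat protein was then added in twofold steps (0.7 or 1.5 nM to 3 µM; 0.8–1.5 h to 10–20 min per step) in 100 mM Tris-HCl pH 7.5, 80 mM KCl, 4 mM MgCl2, without or with constant ligand.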
row,Sequence,apparent KD of MS2 coat protein
1,CGGACAUGAGGAUCACCCAUGUACACUGAAGGAGCGUCGAGAACGACAGGUAGGUCGCAGGUUGAGGAAGGUGAUGCUCAAGAAG [Exclusion Arginine A GF4],0.0719 µM
2,CUACAUUUGUAGAAACCGGUCAACAUUAUUCGAGGACCGGUACGGCCGCCACUCGUAUAAUUUAAUACAUGAGGAUCACCCAUGU [Tryptophan A 5],0.0173 µM
3,GAAUAUUACAUGAGGAUCACCCAUGUAGAUACCAGCCUUGAUUGUGGCCCUUGGCAGCUACGCCGUGAAUGCCUCAGUUGCUUAC [Atidi],0.121 µM
4,GACAUGAGGAUCACCCAUGUACCGCGAGAAGGAGCGCGGAUAAACGCAGGUAGGUCGCUCGUGGGCUCACAUUCAAUCGUAAGCU [Azaesisma],0.116 µM
5,AGAUUCGACACGGCCGCCACUUGUGGUGGAUUAUCCUGUGUCGAACAUGAGGAUCACCCAUGUACAAGGACCGGGUGUUGAGUCU [XTryp B #20],0.151 µM
6,GGUGGCUGGACUGAUACCAGCCACCACCGAUAGACCACAUGAGGAUCACCCAUGUUGGGUGGCCCUUGGCAGCAGUCUAGCUGCC [#1 Same State - Theophylline B Attempt #11 (HarryS)],0.727 µM
7,AGACAUGAGGAUCACCCAUGUAGUACGGAUACCAGAUCCAGAUGUAUCCCUUGGCAGCUGUGGUACAGCGUUGCAACGCUCCUAG [Exclusion - Theophylline A (Freestyle 18)],0.0239 µM
8,GAAGAGACCUCGGCCGCCACUCGCCAUGAGGAUCUCCCAUGUAACAUGAGGAUCACCCAUGUACAGAGGACCGGGAGGUCCUAGU [Same State Tryptophan B GF 14],0.0391 µM

# Same assay, conditions: Eterna round: R107; input ligand: theophylline 2 mM
row,Sequence,apparent KD of MS2 coat protein
1,UGUAUGUGAUCUGAUACCAGCGUUGAUAACCUGAGGAUCACCCUGGUAAGGCGAAAGCCACGCCCUUGGCAGCAGAUCGCAUACU,0.0198 µM
2,GCGAUGGAGCGAAGGAGCGGCUAAAUGUAACACAUGAGGAUCACCCAUGUUCCAAGAUGUGGCCAGGUAGGUCGCGCUCCAUCGC [SSAB NP+V+V2 #15],0.185 µM
3,CGAAUGAAGCAAGAUACCAGUGUAGAUUUAGACAUGAGGAUCACCCAUGUGAGGCAUGAGCACCCUUGGCAGCUUAAGCAGAAAA [theeternabot_sameState_MS2_Theo_B_47],0.0605 µM
4,UCAUGCAGGUCGGCCGCCACUACACACAUGAGGAUCACCCAUGUAGUUACUGGGUGAAGUGGCAGUAGGACCGGGACCUGCAUAC [Brourdmod09],0.342 µM
5,ACUAGGCUCGGAAACGAGCCUAGGACAGAAGGAGCGUGGAUUAACACAGGUAGGUCGCUGACAUGAGGAUCACCCAUGUAUUAUU [SSAA #2],0.0253 µM
6,UCACGACGCAACGUGAGAUAAUGAACAGAAGGAGCGAGGAGAGCCUCAGGUAGGUCGCUGACAUGAGGAUCACCCAUGUAUUACA [Same State Arginine A GF6],0.08 µM
7,CGGACAUGAGGAUCACCCAUGUACACUGAAGGAGCGUCGAGAACGACAGGUAGGUCGCAGGUUGAGGAAGGUGAUGCUCAAGAAG [Exclusion Arginine A GF4],0.0574 µM
8,CUACAUUUGUAGAAACCGGUCAACAUUAUUCGAGGACCGGUACGGCCGCCACUCGUAUAAUUUAAUACAUGAGGAUCACCCAUGU [Tryptophan A 5],0.0169 µM
9,GACAUGAGGAUCACCCAUGUACCGCGAGAAGGAGCGCGGAUAAACGCAGGUAGGUCGCUCGUGGGCUCACAUUCAAUCGUAAGCU [Azaesisma],0.165 µM
10,AGAUUCGACACGGCCGCCACUUGUGGUGGAUUAUCCUGUGUCGAACAUGAGGAUCACCCAUGUACAAGGACCGGGUGUUGAGUCU [XTryp B #20],0.136 µM
11,GAAGAGACCUCGGCCGCCACUCGCCAUGAGGAUCUCCCAUGUAACAUGAGGAUCACCCAUGUACAGAGGACCGGGAGGUCCUAGU [Same State Tryptophan B GF 14],0.0248 µM

# Same assay, conditions: Eterna round: R107; input ligand: tryptophan 2.4 mM
row,Sequence,apparent KD of MS2 coat protein
1,ACACAUGAGGAUCACCCAUGUUGCAUAGAUACCAGAUAACGUGAGAUCCCUUGGCAGCUAACUGCAUGAACUUGACAUGCAUCAU [Same State Theophylline A 2],0.0535 µM
2,GCUGGGUGCGCAAGGACCUGGCGUUGCGAUACCAGCACGGUAACGUGCCCUUGGCAGCGCACAUGAGGAUCACCCAUGUGGUGCG [#1 Exclusion - Theophylline A Attempt #21 (HarryS)],0.0225 µM
3,UGUAUGUGAUCUGAUACCAGCGUUGAUAACCUGAGGAUCACCCUGGUAAGGCGAAAGCCACGCCCUUGGCAGCAGAUCGCAUACU,0.239 µM
4,GCGAUGGAGCGAAGGAGCGGCUAAAUGUAACACAUGAGGAUCACCCAUGUUCCAAGAUGUGGCCAGGUAGGUCGCGCUCCAUCGC [SSAB NP+V+V2 #15],0.144 µM
5,CGAAUGAAGCAAGAUACCAGUGUAGAUUUAGACAUGAGGAUCACCCAUGUGAGGCAUGAGCACCCUUGGCAGCUUAAGCAGAAAA [theeternabot_sameState_MS2_Theo_B_47],0.0294 µM
6,UCAUGCAGGUCGGCCGCCACUACACACAUGAGGAUCACCCAUGUAGUUACUGGGUGAAGUGGCAGUAGGACCGGGACCUGCAUAC [Brourdmod09],0.078 µM
7,ACUAGGCUCGGAAACGAGCCUAGGACAGAAGGAGCGUGGAUUAACACAGGUAGGUCGCUGACAUGAGGAUCACCCAUGUAUUAUU [SSAA #2],0.0289 µM
8,UCACGACGCAACGUGAGAUAAUGAACAGAAGGAGCGAGGAGAGCCUCAGGUAGGUCGCUGACAUGAGGAUCACCCAUGUAUUACA [Same State Arginine A GF6],0.0652 µM
9,CGGACAUGAGGAUCACCCAUGUACACUGAAGGAGCGUCGAGAACGACAGGUAGGUCGCAGGUUGAGGAAGGUGAUGCUCAAGAAG [Exclusion Arginine A GF4],0.0506 µM
10,GAAUAUUACAUGAGGAUCACCCAUGUAGAUACCAGCCUUGAUUGUGGCCCUUGGCAGCUACGCCGUGAAUGCCUCAGUUGCUUAC [Atidi],0.072 µM
11,GACAUGAGGAUCACCCAUGUACCGCGAGAAGGAGCGCGGAUAAACGCAGGUAGGUCGCUCGUGGGCUCACAUUCAAUCGUAAGCU [Azaesisma],0.0777 µM
12,GGUGGCUGGACUGAUACCAGCCACCACCGAUAGACCACAUGAGGAUCACCCAUGUUGGGUGGCCCUUGGCAGCAGUCUAGCUGCC [#1 Same State - Theophylline B Attempt #11 (HarryS)],0.441 µM
13,AGACAUGAGGAUCACCCAUGUAGUACGGAUACCAGAUCCAGAUGUAUCCCUUGGCAGCUGUGGUACAGCGUUGCAACGCUCCUAG [Exclusion - Theophylline A (Freestyle 18)],0.0152 µM
14,GAAGAGACCUCGGCCGCCACUCGCCAUGAGGAUCUCCCAUGUAACAUGAGGAUCACCCAUGUACAGAGGACCGGGAGGUCCUAGU [Same State Tryptophan B GF 14],0.0501 µM
